Experimental data reported in patent US20160207995A1 (Genentech, published 2016).
Changes are numbered by the printed parent chain. Numbers in names are those of the source. Values belong to the binder of their own block, whether it stands above or below them.

How the values were obtained:
[1] = biological target: T1, human interleukin-4 (IL-4) (human, UniProt P05112 25-153, biotinylated in the competition ELISAs); experiment: SPR
T1 construct: Commercial human IL-4 (R&D Systems); also called human IL-4; biotinylated IL-4
T1 sequence: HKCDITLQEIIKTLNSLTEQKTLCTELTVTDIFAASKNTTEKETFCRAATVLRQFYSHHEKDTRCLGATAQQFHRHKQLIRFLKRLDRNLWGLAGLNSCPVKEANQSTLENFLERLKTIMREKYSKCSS

[2] = biological target: T1, human interleukin-4 (IL-4); experiment: cell-based or functional assay
[3] = biological target: T1, human interleukin-4 (IL-4); experiment: SPR (BIAcore A100): IgG captured by anti-human Fcγ antibody, recombinant IL-4 injected, 1:1 Langmuir fit
[4] = biological target: T1, human interleukin-4 (IL-4); experiment: SPR BIAcore A100; IgG captured on anti-human Fcγ, recombinant IL-4 injected, 1:1 model
[5] = biological target: T1, human interleukin-4 (IL-4); experiment: SPR Biacore
[6] = biological target: T1, human interleukin-4 (IL-4); experiment: SPR Biacore 3000; antibody captured on anti-human Fc, cytokine 0-50 nM injected, 25 °C, 1:1 Langmuir model
human IL-13 [7] = biological target: T2, human IL-13 (human, UniProt P35225 33-146, biotinylated in the IL-13Rα2 competition ELISA); experiment: as above
T2 construct: Made at Genentech; also called biotinylated human IL-13; immobilized IL-13

[8] = biological target: T1, human interleukin-4 (IL-4); experiment: cell-based or functional assay; remark: listed apart in the source
human IL-13 [9] = biological target: T2, human IL-13; experiment: cell-based or functional assay
[10] = biological target: T1, human interleukin-4 (IL-4); experiment: competition ELISA: antibody premixed with biotinylated human IL-4 (5.8 ng/ml), then added to plate-coated human IL-4R; streptavidin-HRP, OD 450 nm
cynomolgus monkey IL-13 = biological target: T3, cynomolgus monkey IL-13 (cynomolgus monkey, UniProt Q5I6E4 19-132 (Macaca thibetana entry), limits assumed); experiment: SPR Biacore 3000; antibody captured on anti-human Fc, cytokine 0-50 nM injected, 25 °C, 1:1 Langmuir model
T3 construct: also called cyno IL-13
T3 chain: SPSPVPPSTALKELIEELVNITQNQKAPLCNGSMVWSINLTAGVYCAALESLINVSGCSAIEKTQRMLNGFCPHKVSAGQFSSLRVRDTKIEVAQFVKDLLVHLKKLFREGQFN

human IL-13 R130Q = biological target: T4, human IL-13 R130Q (human, UniProt P35225 25-146, biotinylated in the IL-13Rα1 competition ELISA); experiment: as above
T4 construct: also called biotinylated IL-13 R130Q

cynomolgus monkey IL-4 = biological target: T5, cynomolgus monkey IL-4 (cynomolgus monkey, UniProt P79339 25-153); experiment: as above
T5 construct: Made at Genentech; also called cyno IL-4
T5 sequence: T1 sequence with E26K, V29I, F33L

human IL-13 [11] = biological target: T2, human IL-13; experiment: competition ELISA: antibody premixed with biotinylated human IL-13 (0.056 µg/ml), then added to plate-coated human IL-13Rα2-Fc; streptavidin-HRP, OD 450 nm

B2: 19C11 Chimera (antibody, V domains shown)
VH: QIQLVQSGPELKKPGETVKISCKASGYTFTDYSMHWMKQAPGKGLKWMVWINTETGEPTYADDFKGRFAFSLETSANTAYLKINNLKNEDTATYFCARGGIFYGMDYWGQGTSVTVSS
VL: SIVMTQTPKFLLISAGDRVTITCKASQSVINDAAWYQQKPGQSPRLLIYYTSHRYTGVPDRFTGSGYGTDFTFTISTVQAEDLAVYFCQQDYTSPWTFGGGTKLEIKR
notes: also called chimeric 19C11 (mouse variable regions with human IgG constant regions)
- Kd [3]: < 10 pM

B3: HuVHIII / HuKIII (antibody, V domains shown)
VH: EVQLVESGGGLVQPGGSLRLSCAASGYTFTDYSMHWVRQAPGKGLEWVVWINTETGEPTYADDFKGRFTISRDNSKNTLYLQMNSLRAEDTAVYYCARGGIFYGMDYWGQGTLVTVSS
VL: EIVLTQSPATLSLSPGERATLSCKASQSVINDAAWYQQKPGQAPRLLIYYTSHRYTGIPARFSGSGSGTDFTLTISSLEPEDFAVYYCQQDYTSPWTFGQGTKVEIKR
notes: also called humanized 19C11-VH3 graft/κ3 graft
- Kd [3]: 26 pM

B5: HuVHI / HuKI (antibody, V domains shown)
VH: QVQLVQSGAEVKKPGASVKVSCKASGYTFTDYSMHWVRQAPGQGLEWMVWINTETGEPTYADDFKGRVTITRDTSTSTAYLELSSLRSEDTAVYYCARGGIFYGMDYWGQGTLVTVSS
VL: DIQMTQSPSSLSASVGDRVTITCKASQSVINDAAWYQQKPGKAPKLLIYYTSHRYTGVPSRFSGSGSGTDFTLTISSLQPEDFATYYCQQDYTSPWTFGQGTKVEIKR
notes: also called humanized 19C11-VH1 graft/κ1 graft
- Kd [3]: 24 pM

B6: HuVHIII / HuKI (antibody, V domains shown)
VH: B3 VH
VL: B5 VL
notes: also called humanized 19C11-VH3 graft/κ1 graft
- Kd [3]: 84 pM

B7: HuVHIII (FLA) / HuKI (antibody, V domains shown)
VH: B3 VH with I70F, R72L, L79A
VL: B5 VL
notes: also called humanized 19C11-VH3.FLA/κ1 graft
- Kd [3]: 140 pM

B8: humanized antibody 19C11-VH3.LA.SV/κ1 graft (anti-IL-4) (antibody, V domains shown)
VH: B3 VH with D63S, F64V, R72L, L79A
VL: B5 VL
notes: Parental (monospecific) humanized anti-IL-4 antibody; also called parental anti-IL-4 antibody; hu19C11
- binding result [5]: binds

B10: anti-IL-4/IL-13 IgG1 bispecific antibody (knobs-into-holes) (bispecific antibody)
heavy 1: not shown
light 1: DIQMTQSPSSLSASVGDRVTITCKASQSVINDAAWYQQKPGKAPKLLIYYTSHRYTGVPSRFSGSGSGTDFTLTISSLQPEDFATYYCQQDYTSPWTFGQGTKVEIKRTVAAPSVFIFPPSDEQLKSGTASVVCLLNNFYPREAKVQWKVDNALQSGNSQESVTEQDSKDSTYSLSSTLTLSKADYEKHKVYACEVTHQGLSSPVTKSFNRGEC
heavy 2: not shown
light 2: DIVLTQSPDSLSVSLGERATINCRASKSVDSYGNSFMHWYQQKPGQPPKLLIYLASNLESGVPDRFSGSGSGTDFTLTISSLQAEDVAVYYCQQNNEDPRTFGGGTKVEIKRTVAAPSVFIFPPSDEQLKSGTASVVCLLNNFYPREAKVQWKVDNALQSGNSQESVTEQDSKDSTYSLSSTLTLSKADYEKHKVYACEVTHQGLSSPVTKSFNRGEC
notes: Half antibodies made in E. coli (not glycosylated) and assembled by redox chemistry; Anti-IL-4 arm is the hole, anti-IL-13 arm the knob; also called anti-IL-4/IL-13 IgG1-isotype
- Kd [6]: 68 pM
- koff [6]: 8.48e-05 s⁻¹
- kon [6]: 1.34e+06 M⁻¹ s⁻¹
- Kd (human IL-13 [7]): 23 pM
- koff (human IL-13 [7]): 1.7e-05 s⁻¹
- kon (human IL-13 [7]): 714000 M⁻¹ s⁻¹
- IC50 of TF-1 proliferation inhibition assay (IL-4) [8]: 0.06 µg/mL
- IC50 of TF-1 proliferation inhibition assay (IL-13) (human IL-13 [9]): 0.03 µg/mL

B11: anti-IL-4/IL-13 IgG4 bispecific antibody (knobs-into-holes, S228P, wild-type R409) (bispecific antibody)
heavy 1: EVQLVESGGGLVQPGGSLRLSCAASGYTFTDYSMHWVRQAPGKGLEWVVWINTETGEPTYADSVKGRFTISLDNSKNTAYLQMNSLRAEDTAVYYCARGGIFYGMDYWGQGTLVTVSSASTKGPSVFPLAPCSRSTSESTAALGCLVKDYFPEPVTVSWNSGALTSGVHTFPAVLQSSGLYSLSSVVTVPSSSLGTKTYTCNVDHKPSNTKVDKRVESKYGPPCPPCPAPEFLGGPSVFLFPPKPKDTLMISRTPEVTCVVVDVSQEDPEVQFNWYVDGVEVHNAKTKPREEQFNSTYRVVSVLTVLHQDWLNGKEYKCKVSNKGLPSSIEKTISKAKGQPREPQVYTLPPSQEEMTKNQVSLSCAVKGFYPSDIAVEWESNGQPENNYKTTPPVLDSDGSFFLVSRLTVDKSRWQEGNVFSCSVMHEALHNHYTQKSLSLSLGK
light 1: B10 light 1
heavy 2: not shown
light 2: B10 light 2
notes: Half antibodies made in E. coli (not glycosylated) and assembled by redox chemistry; also called anti-IL-4/IL-13 bispecific antibody; anti-IL-4/IL-13 IgG4-isotype
- IC50 (read off the curve) [10]: ~0.2 µg/mL
- Kd [6]: 46 pM
- koff [6]: 0.000133 s⁻¹
- kon [6]: 2.87e+06 M⁻¹ s⁻¹
- Kd (cynomolgus monkey IL-13): 48 pM
- koff (cynomolgus monkey IL-13): 2.83e-05 s⁻¹
- kon (cynomolgus monkey IL-13): 608000 M⁻¹ s⁻¹
- Kd (human IL-13 R130Q): 142 pM
- koff (human IL-13 R130Q): 2.62e-05 s⁻¹
- kon (human IL-13 R130Q): 184000 M⁻¹ s⁻¹
- Kd (human IL-13 [7]): 56 pM
- koff (human IL-13 [7]): 3.01e-05 s⁻¹
- kon (human IL-13 [7]): 537000 M⁻¹ s⁻¹
- Kd (cynomolgus monkey IL-4): 76 pM
- koff (cynomolgus monkey IL-4): 0.000151 s⁻¹
- kon (cynomolgus monkey IL-4): 2.02e+06 M⁻¹ s⁻¹
- IC50 of TF-1 proliferation inhibition assay (IL-4) [8]: 0.05 µg/mL
- IC50 of TF-1 proliferation inhibition assay (IL-13) (human IL-13 [9]): 0.03 µg/mL
- IC50 (read off the curve) (human IL-13 [11]): ~0.2 µg/mL

More lines, now with the values ahead:

- Kd [1]: ≤ 10 pM
- IC50 for blocking IL-4-induced proliferation of TF-1 cells [2]: 0.014 µg/mL
B1: mu19C11 (clone 19C11, murine anti-human IL-4 monoclonal antibody) (antibody, V domains shown)
VH: B2 VH
VL: B2 VL
notes: Mouse hybridoma IgG (BALB/c); Tested as hybridoma supernatant IgG or purified IgG

- Kd [4]: 11 pM
B4: humanized 19C11-VH3.FLA/κ3 graft (antibody, V domains shown)
VH: B3 VH with I70F, R72L, L79A
VL: B3 VL
notes: Human IgG expressed in 293 cells; also called 19C11-VH3.FLA with 19C11-κ3 graft

- Kd [4]: 11 pM
B9: humanized 19C11-VH1.FFL/κ3 graft (antibody, V domains shown)
VH: B5 VH with V68F, I70F, R72L
VL: B3 VL
notes: Human IgG expressed in 293 cells; also called 19C11-VH1.FFL with 19C11-κ3 graft
